Assay [1] has as its target T1, Suv39h1, wild type (FLAG-tagged, recombinant human) (human, UniProt O43463 1-412).
T1 sequence: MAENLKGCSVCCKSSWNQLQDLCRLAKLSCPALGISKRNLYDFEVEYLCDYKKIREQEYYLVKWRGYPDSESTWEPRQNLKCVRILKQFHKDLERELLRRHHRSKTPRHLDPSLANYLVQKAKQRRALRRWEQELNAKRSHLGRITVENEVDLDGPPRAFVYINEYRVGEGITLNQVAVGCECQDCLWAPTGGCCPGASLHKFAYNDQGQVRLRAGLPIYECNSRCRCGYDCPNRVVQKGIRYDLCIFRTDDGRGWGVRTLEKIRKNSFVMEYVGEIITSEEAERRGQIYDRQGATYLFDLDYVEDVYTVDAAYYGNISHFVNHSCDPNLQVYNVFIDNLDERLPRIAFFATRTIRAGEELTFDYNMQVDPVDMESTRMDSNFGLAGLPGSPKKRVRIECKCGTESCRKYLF
Briefly: pull-down.

For assay [2], the target named is T2, Suv39h1 R24,K27A double mutant (FLAG-tagged) (human, UniProt O43463 1-412, R24A | K27A).
T2 sequence: T1 sequence with R24A, K27A
Briefly: pull-down.

Positions count from the first letter of the chain named.

B1: HP1β (human Cbx1), His6-tagged (natural protein)
chain: not shown
For B1, the binding result in assay [1] and in assay [2] was “binds” throughout.

These data come from PMC4876634 (Nature chemical biology, 2016).
